From FireProtDB (doi:10.1002/pro.2449)

B1: Variable large protein wild type, Q5DVG3 (protein)
chain: MNTKKISSAILLTTFFVFINCKSQVADKDDPTNKFYQSVIQLGNGFLDVFTSFGGLVAEAFGFKSDPKKSDVKTYFTTVAAKLEKTKTDLNSLPKEKSDISSTTGKPDSTGSVGTAVEGAIKEVSELLDKLVKAVKTAEGASSGTAAIGEVVDNAAAAKAADKDSVTGIAKGIKEIVEAAGGSKKLKAAAAKGENNKGAGKLFGKAGDAAHGDSEAASKAAGAVSAVSGEQILSAIVKAAAAGDQEGKKPGEAKNPIAAAIGEGDGDAEFNQDGMKKDDQIAAAIALRGMAKDGKFAVKNDEKGKAEGAIKGAAESAVRKVLGAITGLIGDAVSSGLRKVGDSVKAASKETPPALNK
B2: Guanyl-specific ribonuclease T1 wild type, P00651 (protein)
chain: MMYSKLLTLTTLLLPTALALPSLVERACDYTCGSNCYSSSDVSTAQAAGYQLHEDGETVGSNSYPHKYNNYEGFDFSVSSPYYEWPILSSGDVYSGGSPGADRVVFNENNQLAGVITHTGASGNNFVECT
B3: Guanyl-specific ribonuclease Sa wild type, P05798 (protein)
chain: DVSGTVCLSALPPEATDTLNLIASDGPFPYSQDGVVFQNRESVLPTQSYGYYHEYTVITPGARTRGTRRIITGEATQEDYYTGDHYATFSLIDQTC

Settings: Borreliella burgdorferi; pH 7; 25 °C; Urea; CD; Sodium Phosphate Buffer; transition: 2; reversible: yes; whole UniProt chain shown

Protein	denaturant m value	denaturant midpoint (higher = more stable)	unfolding free energy
B1	3.86 kcal/mol/M	1.19 M	4.6 kcal/mol

Same assay, conditions: Aspergillus oryzae (strain ATCC 42149 / RIB 40); pH 7; 25 °C; Urea; MOPS; transition: 2; reversible: yes; whole UniProt chain shown

Protein	denaturant m value	denaturant midpoint (higher = more stable)	unfolding free energy
B2	1.17 kcal/mol/M	5.2 M	6.1 kcal/mol

Same assay, conditions: Aspergillus oryzae (strain ATCC 42149 / RIB 40); pH 7; Thermal; DSC; MOPS; transition: 2; reversible: yes; whole UniProt chain shown

Protein	Tm	unfolding enthalpy (calorimetric)
B2	52.5 °C	107 kcal/mol

Same assay, conditions: Kitasatospora aureofaciens; pH 7; Thermal; DSC; MOPS; transition: 2; reversible: yes; whole UniProt chain shown

Protein	Tm	unfolding enthalpy (calorimetric)
B3	48.4 °C	92 kcal/mol
